Laboratory results taken from patent US20070077617.
Residue numbers refer to the chain shown, from its start. In names and notes the source's numbering stands.

Measured: relative cleavage efficiency

Sequence of fusion protein PRI (chain, as listed by the source): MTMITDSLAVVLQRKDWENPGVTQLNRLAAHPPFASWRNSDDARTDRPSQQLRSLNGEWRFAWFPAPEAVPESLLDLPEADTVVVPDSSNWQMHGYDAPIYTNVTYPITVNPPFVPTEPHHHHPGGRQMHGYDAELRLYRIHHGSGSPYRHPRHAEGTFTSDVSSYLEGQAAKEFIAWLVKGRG
Sequence of fusion protein PRS (chain, as listed by the source): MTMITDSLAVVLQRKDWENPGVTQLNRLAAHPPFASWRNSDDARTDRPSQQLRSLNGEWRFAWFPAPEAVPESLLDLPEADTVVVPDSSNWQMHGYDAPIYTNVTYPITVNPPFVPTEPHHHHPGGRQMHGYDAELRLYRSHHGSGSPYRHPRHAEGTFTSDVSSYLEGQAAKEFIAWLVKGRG
Sequence of fusion protein PRT (chain, as listed by the source): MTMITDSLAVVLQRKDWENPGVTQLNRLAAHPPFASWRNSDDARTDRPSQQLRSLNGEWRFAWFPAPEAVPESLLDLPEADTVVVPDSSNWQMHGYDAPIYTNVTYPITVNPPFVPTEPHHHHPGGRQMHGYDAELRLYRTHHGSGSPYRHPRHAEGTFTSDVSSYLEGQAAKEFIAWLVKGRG
Sequence of fusion protein PRL (chain, as listed by the source): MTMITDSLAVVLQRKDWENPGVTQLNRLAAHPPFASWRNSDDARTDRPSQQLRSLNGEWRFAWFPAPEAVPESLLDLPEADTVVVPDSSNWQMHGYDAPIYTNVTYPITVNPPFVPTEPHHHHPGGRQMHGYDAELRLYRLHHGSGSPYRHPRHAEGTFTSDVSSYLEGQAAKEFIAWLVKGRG
Sequence of fusion protein PRQ (chain, as listed by the source): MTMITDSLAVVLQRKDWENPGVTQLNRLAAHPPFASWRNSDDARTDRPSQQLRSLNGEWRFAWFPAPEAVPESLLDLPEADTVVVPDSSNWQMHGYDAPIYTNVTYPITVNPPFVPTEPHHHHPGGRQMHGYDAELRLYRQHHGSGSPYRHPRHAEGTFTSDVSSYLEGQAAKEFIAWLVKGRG
Sequence of fusion protein PRM (chain, as listed by the source): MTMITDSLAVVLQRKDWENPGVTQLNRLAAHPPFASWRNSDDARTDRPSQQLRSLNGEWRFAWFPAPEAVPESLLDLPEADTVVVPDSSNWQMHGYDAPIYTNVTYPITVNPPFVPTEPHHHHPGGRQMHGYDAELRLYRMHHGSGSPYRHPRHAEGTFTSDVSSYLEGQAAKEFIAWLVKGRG
Sequence of fusion protein PRN (chain, as listed by the source): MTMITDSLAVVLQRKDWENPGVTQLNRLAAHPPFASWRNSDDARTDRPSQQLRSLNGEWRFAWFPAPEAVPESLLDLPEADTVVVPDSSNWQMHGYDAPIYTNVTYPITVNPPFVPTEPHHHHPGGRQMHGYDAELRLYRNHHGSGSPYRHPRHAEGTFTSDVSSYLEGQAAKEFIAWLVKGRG
Sequence of fusion protein PRF (chain, as listed by the source): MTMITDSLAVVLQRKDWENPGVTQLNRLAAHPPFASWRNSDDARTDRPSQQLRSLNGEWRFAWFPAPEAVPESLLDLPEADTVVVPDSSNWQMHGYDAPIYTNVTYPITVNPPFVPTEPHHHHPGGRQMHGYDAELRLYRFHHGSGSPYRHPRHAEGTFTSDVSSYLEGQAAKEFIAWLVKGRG
Sequence of fusion protein PRG (chain, as listed by the source): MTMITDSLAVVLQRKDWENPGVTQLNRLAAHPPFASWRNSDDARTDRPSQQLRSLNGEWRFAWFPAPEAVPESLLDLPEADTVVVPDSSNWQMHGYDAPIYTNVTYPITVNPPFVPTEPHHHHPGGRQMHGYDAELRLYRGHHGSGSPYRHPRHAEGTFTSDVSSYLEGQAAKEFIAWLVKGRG
Sequence of fusion protein PRY (chain, as listed by the source): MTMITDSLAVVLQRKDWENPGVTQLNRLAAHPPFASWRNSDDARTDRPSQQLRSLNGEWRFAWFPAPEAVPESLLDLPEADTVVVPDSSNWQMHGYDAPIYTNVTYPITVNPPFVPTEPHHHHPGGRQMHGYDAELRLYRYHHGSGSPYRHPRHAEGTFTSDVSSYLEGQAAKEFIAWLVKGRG
Sequence of fusion protein PRA (chain, as listed by the source): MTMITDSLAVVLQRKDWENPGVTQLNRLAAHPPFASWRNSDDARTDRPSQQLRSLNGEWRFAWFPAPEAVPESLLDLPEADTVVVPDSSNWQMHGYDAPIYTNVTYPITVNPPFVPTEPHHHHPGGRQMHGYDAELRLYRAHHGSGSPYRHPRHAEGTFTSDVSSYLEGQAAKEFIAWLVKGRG
Sequence of fusion protein PRR (chain, as listed by the source): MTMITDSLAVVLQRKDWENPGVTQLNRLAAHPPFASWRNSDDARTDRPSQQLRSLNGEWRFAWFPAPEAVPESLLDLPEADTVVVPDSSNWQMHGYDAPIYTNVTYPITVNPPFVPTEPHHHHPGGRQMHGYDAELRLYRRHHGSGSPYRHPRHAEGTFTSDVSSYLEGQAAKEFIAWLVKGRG
Sequence of fusion protein PRE (chain, as listed by the source): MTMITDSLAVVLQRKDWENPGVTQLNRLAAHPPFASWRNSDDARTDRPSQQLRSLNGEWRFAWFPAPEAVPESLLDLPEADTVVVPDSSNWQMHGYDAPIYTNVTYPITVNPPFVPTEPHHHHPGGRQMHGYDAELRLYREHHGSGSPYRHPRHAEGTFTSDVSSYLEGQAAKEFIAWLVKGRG
Sequence of fusion protein PRD (chain, as listed by the source): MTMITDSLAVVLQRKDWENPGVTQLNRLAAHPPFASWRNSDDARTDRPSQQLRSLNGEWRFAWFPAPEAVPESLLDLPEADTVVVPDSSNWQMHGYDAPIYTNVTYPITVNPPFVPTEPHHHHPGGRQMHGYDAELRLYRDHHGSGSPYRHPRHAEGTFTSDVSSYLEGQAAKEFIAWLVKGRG
Sequence of fusion protein PRW (chain, as listed by the source): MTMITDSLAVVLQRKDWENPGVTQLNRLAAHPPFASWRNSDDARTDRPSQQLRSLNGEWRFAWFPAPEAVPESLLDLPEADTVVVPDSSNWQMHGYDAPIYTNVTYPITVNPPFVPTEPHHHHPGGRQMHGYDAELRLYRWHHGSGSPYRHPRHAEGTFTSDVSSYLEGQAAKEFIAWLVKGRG
Sequence of fusion protein PRK (chain, as listed by the source): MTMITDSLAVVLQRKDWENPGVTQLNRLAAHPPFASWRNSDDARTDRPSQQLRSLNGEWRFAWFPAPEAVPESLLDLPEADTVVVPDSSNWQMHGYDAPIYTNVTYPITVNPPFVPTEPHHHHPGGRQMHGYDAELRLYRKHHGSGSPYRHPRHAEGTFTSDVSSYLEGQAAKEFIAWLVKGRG
Sequence of fusion protein PRH (chain, as listed by the source): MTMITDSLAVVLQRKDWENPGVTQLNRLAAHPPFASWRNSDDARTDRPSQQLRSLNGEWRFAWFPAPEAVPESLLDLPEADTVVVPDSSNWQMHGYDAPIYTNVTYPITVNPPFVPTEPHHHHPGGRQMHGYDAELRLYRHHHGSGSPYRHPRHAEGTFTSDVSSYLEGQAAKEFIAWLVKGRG
Sequence of fusion protein PRC (chain, as listed by the source): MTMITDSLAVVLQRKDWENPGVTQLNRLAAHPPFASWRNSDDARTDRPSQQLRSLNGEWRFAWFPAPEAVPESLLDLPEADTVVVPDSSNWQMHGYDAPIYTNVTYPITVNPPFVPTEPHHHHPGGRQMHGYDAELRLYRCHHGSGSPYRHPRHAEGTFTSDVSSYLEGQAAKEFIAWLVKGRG

B1: OmpT protease variant OmpT D97V (protein)
chain: STETLSFTPDNINADISLGTLSGKTKERVYLAEEGGRKVSQLDWKFNNAAIIKGAINWDLMPQISIGAAGWTTLGSRGGNMVDQDWMDSSNPGTWTVESRHPDTQLNYANEFDLNIKGWLLNEPNYRLGLMAGYQESRYSFTARGGSYIYSSEEGFRDDIGSFPNGERAIGYKQRFKMPYIGLTGSYRYEDFELGGTFKYSGWVESSDNDEHYDPGKRITYRSKVKDQNYYSVAVNAGYYVTPNAKVYVEGAWNRVTNKKGNTSLYDHNNNTSDYSKNGAGIENYNFITTAGLKYTF
less than 3.0%: fusion protein PRH | fusion protein PRA | fusion protein PRC | fusion protein PRD | fusion protein PRI | fusion protein PRN | fusion protein PRL | fusion protein PRW | fusion protein PRT | fusion protein PRY | fusion protein PRS | fusion protein PRG | fusion protein PRE | fusion protein PRF | fusion protein PRQ | fusion protein PRP | fusion protein PRK | fusion protein PRM | fusion protein PRR

B2: OmpT protease variant OmpT D97G (protein)
chain: B1 chain with V97G
less than 3.0%: fusion protein PRH | fusion protein PRA | fusion protein PRC | fusion protein PRD | fusion protein PRI | fusion protein PRN | fusion protein PRL | fusion protein PRW | fusion protein PRT | fusion protein PRY | fusion protein PRS | fusion protein PRG | fusion protein PRE | fusion protein PRF | fusion protein PRQ | fusion protein PRP | fusion protein PRK | fusion protein PRM | fusion protein PRR

B3: OmpT protease variant OmpT D97Y (protein)
chain: B1 chain with V97Y
less than 3.0%: fusion protein PRH | fusion protein PRA | fusion protein PRC | fusion protein PRD | fusion protein PRI | fusion protein PRN | fusion protein PRL | fusion protein PRW | fusion protein PRT | fusion protein PRY | fusion protein PRS | fusion protein PRG | fusion protein PRE | fusion protein PRF | fusion protein PRQ | fusion protein PRP | fusion protein PRK | fusion protein PRM | fusion protein PRR

B4: OmpT protease variant OmpT D97K (protein)
chain: B1 chain with V97K
less than 3.0%: fusion protein PRH | fusion protein PRA | fusion protein PRC | fusion protein PRD | fusion protein PRI | fusion protein PRN | fusion protein PRL | fusion protein PRW | fusion protein PRT | fusion protein PRY | fusion protein PRS | fusion protein PRG | fusion protein PRE | fusion protein PRF | fusion protein PRQ | fusion protein PRP | fusion protein PRK | fusion protein PRM | fusion protein PRR

B5: OmpT protease variant OmpT D97P (protein)
chain: B1 chain with V97P
less than 3.0%: fusion protein PRH | fusion protein PRA | fusion protein PRC | fusion protein PRD | fusion protein PRI | fusion protein PRN | fusion protein PRL | fusion protein PRW | fusion protein PRT | fusion protein PRY | fusion protein PRS | fusion protein PRG | fusion protein PRE | fusion protein PRF | fusion protein PRQ | fusion protein PRP | fusion protein PRK | fusion protein PRM | fusion protein PRR

B6: OmpT protease variant OmpT D97W (protein)
chain: B1 chain with V97W
less than 3.0%: fusion protein PRH | fusion protein PRA | fusion protein PRC | fusion protein PRD | fusion protein PRI | fusion protein PRN | fusion protein PRL | fusion protein PRW | fusion protein PRT | fusion protein PRY | fusion protein PRS | fusion protein PRG | fusion protein PRE | fusion protein PRF | fusion protein PRQ | fusion protein PRP | fusion protein PRK | fusion protein PRM | fusion protein PRR

B7: OmpT protease variant OmpT D97I (protein)
chain: B1 chain with V97I
less than 3.0%: fusion protein PRH | fusion protein PRA | fusion protein PRC | fusion protein PRD | fusion protein PRI | fusion protein PRN | fusion protein PRL | fusion protein PRW | fusion protein PRT | fusion protein PRY | fusion protein PRS | fusion protein PRG | fusion protein PRE | fusion protein PRF | fusion protein PRQ | fusion protein PRP | fusion protein PRK | fusion protein PRM | fusion protein PRR
